Source: patent publication US20240228562A1 (Pieris, published 2024)

T1: mouse CTGF (Abbexa) (mouse, UniProt P29268 26-348, limits assumed)
T1 construct: also called Murine CTGF; mCTGF
T1 sequence (looked up): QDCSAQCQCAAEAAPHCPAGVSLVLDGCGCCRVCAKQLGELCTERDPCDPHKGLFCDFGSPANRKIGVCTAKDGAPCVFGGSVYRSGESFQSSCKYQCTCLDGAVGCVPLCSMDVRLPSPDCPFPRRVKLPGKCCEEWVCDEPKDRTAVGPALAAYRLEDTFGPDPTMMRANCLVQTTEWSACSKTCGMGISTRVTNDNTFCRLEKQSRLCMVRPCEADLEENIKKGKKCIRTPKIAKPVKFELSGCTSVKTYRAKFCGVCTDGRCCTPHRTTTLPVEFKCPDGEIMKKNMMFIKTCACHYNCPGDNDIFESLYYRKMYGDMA

T2: huNOV (human, UniProt P48745 32-357, limits assumed)
T2 construct: also called human NOV (CCN3)
T2 sequence (looked up): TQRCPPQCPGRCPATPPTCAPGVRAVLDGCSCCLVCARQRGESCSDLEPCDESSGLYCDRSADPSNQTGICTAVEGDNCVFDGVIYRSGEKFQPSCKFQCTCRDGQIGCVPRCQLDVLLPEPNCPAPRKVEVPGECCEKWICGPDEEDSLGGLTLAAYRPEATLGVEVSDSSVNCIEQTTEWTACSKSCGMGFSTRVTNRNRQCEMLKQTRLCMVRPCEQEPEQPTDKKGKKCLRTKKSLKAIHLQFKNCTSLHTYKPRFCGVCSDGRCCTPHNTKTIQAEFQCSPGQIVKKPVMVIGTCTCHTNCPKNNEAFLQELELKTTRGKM

T3: huWISP-1 (human, UniProt O95388 23-367, limits assumed)
T3 construct: also called human WISP-1 (CCN4)
T3 sequence (looked up): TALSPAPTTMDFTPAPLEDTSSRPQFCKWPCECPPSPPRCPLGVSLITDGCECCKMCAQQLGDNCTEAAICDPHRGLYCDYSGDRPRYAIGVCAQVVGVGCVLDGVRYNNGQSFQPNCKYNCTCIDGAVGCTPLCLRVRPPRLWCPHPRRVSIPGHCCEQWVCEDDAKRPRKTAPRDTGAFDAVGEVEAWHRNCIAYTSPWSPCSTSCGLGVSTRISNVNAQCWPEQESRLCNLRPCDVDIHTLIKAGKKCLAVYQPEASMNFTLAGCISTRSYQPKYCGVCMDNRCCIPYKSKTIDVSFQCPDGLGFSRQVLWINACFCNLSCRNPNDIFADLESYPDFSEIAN

T4: recombinant rat CTGF protein (R&D Systems) (rat, UniProt Q9R1E9 25-347)
T4 construct: Bought; also called rCTGF
T4 sequence: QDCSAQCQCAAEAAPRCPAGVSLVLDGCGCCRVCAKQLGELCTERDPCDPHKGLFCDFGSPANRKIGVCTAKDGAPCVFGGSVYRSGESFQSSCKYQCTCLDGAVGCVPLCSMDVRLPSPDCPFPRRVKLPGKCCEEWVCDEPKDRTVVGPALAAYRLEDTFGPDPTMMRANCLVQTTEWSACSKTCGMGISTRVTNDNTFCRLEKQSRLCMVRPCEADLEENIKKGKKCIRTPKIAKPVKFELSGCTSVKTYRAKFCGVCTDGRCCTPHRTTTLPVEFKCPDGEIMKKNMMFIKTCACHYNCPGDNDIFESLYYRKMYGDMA


How the values were obtained:
mouse CTGF (Abbexa) = target: T1, mouse CTGF (Abbexa); test: SPR (Biacore)
Outline: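 Lipocalin muteins injected at 25 °C over CTGF either Fc-tagged and captured by anti-human IgG-Fc (0.25-2.5 μg/mL in HBS-EP+, 180 s) or amine-coupled directly to a CM5 chip. Association 180 s, dissociation 900-3600 s, flow 30 μL/min.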

huNOV = target: T2, huNOV; test: ELISA, coated CCN protein
Outline: (§1)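 Plates coated with each CCN protein at 1 μg/ml overnight at 4 °C, blocked with PBS-T/BSA, then serially diluted muteins from 1000 nM bound 1 h at RT. Detection with HRP anti-NGAL or anti-Strep-Tag and fluorogenic substrate; cross-reactivity judged when the CTGF signal neared saturation.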

huWISP-1 = target: T3, huWISP-1; test: ELISA, coated CCN protein
Outline: as §1

[1] = target: T5, murine CTGF (Biozol, SEQ ID NO: 80) (murine); test: ELISA, coated target
T5 construct: Bought; also called muCTGF

[2] = target: T6, huCTGF domains 1 and 2 with human Fc tag (human); test: ELISA, coated target
T6 construct: Made by Evitria; also called Human CTGF1-2-huFc

[3] = target: T4, recombinant rat CTGF protein (R&D …); test: ELISA, coated target
[4] = target: T7, muCTGF domains 1 and 2 with human Fc tag (murine); test: ELISA, coated target
T7 construct: Made by Evitria; also called Murine CTGF1-2-huFc
T7 sequence (chain, as listed by the source limits assumed): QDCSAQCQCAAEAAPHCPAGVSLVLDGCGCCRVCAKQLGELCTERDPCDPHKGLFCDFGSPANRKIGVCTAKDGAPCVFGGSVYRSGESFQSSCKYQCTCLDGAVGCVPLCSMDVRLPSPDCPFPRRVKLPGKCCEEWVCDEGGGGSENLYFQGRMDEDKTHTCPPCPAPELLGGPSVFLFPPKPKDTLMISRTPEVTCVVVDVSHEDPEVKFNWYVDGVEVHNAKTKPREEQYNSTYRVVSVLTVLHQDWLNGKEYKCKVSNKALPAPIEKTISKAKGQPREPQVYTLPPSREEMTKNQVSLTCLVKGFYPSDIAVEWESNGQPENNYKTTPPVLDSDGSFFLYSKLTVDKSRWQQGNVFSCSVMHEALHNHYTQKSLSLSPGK

Kd (mouse CTGF (Abbexa)) [nM] | koff (mouse CTGF (Abbexa)) [s⁻¹] | kon (mouse CTGF (Abbexa)) [M⁻¹ s⁻¹] | EC50 [2] [nM] | EC50 [3] [nM] | EC50 [4] [nM] | EC50 [1] [nM] | Binder | binding result (huNOV) | binding result (huWISP-1) | binding result (mouse CTGF (Abbexa)) | binding result [1] | binding result [2] | binding result [4]
0.349 | 4.51e-05 | 129000 | – | – | – | – | lipocalin mutein of SEQ ID NO: 15 (designed binder, also called hNGAL mutein; not shown: C-terminal His-tag) QDSTSDLIPAPPLSKVPLQQNFQDNQFQGKWYVVGLAGNAILREDKQPAKMFATIYELKEDKSYDVTSVRFEAKSCKYTIKTFVPGSQPGEFTAGYIKSAPGQTSTLVRVVSTNYNQHAMVFFKHVTQNREIFVITLYGRTKELTSELKENFIRFSKSLGLPENHIVFPVPIDQCIDG | no binding (tested: dilutions starting at 1000 nM) | no binding (tested: dilutions starting at 1000 nM) | – | – | – | –
– | – | – | 8.8 | 23 | 14 | – | lipocalin mutein of SEQ ID NO: 25 (designed binder, Parent hNGAL mutein; also called hNGAL mutein) QDSTSDLIPAPPLSKVPLQQNFQDNQFHGKWYVVGMAGNFRLREDKDPSKMGATIYELKEDKSYNVTQVQFDDKKCLYVIETFVPGSQPGEFTLGAIKSFPGFTSQLVRVVSTNYNQHAMVFFKKVYQNREVFWITLYGRTKELTSELKENFIRFSKSLGLPENHIVFPVPIDQCIDGSAWSHPQFEK | no binding (tested: dilutions starting at 1000 nM) | no binding (tested: dilutions starting at 1000 nM) | no binding (tested: typically 0.43-2000 nM) | no binding (tested: dilutions starting at 1000 nM) | – | –
6.26 | 0.000832 | 133000 | 8 | 30 | 5.8 | 11 | lipocalin mutein of SEQ ID NO: 9 (designed binder, Parent hNGAL mutein; also called hNGAL mutein) QDSTSDLIPAPPLSKVPLQQNFQDNQFHGKWYVVGLAGNKILRIDKQPAKMFATIYELKEDKSYDVTSVRFEARSCSYTIKTFVPGSQPGEFTAGNIKSAPGQTSTLVRVVSTNYNQHAMVFFKHVSQNRETFVITLYGRTKELTSELKENFIRFSKSLGLPENHIVFPVPIDQCIDGSAWSHPQFEK | no binding (tested: dilutions starting at 1000 nM) | no binding (tested: dilutions starting at 1000 nM) | – | – | – | –
– | – | – | 17 | 41 | 14 | 29 | lipocalin mutein of SEQ ID NO: 7 (designed binder, Parent hNGAL mutein; also called hNGAL mutein) QDSTSDLIPAPPLSKVPLQQNFQDNQFHGKWYVVGLAGNYGLRTDKRPSKMFATIYELKEDKSYDVTSVRFEQERCHYTIRTFVPGSQPGEFTTGSIKSRPGQTSSLVRVVSTNYNQHAMVFFKSVIQNREYFAITLYGRTKELTSELKENFIRFSKSLGLPENHIVFPVPIDQCIDGSAWSHPQFEK | no binding (tested: dilutions starting at 1000 nM) | no binding (tested: dilutions starting at 1000 nM) | – | – | – | –
– | – | – | – | – | – | – | lipocalin mutein of SEQ ID NO: 3 (designed binder, Parent hNGAL mutein; also called hNGAL mutein) QDSTSDLIPAPPLSKVPLQQNFQDNQFHGKWYVVGRAGNNRLREDKDPPKMWATIYELKEDKSYNVTHVHFMTKKCRYIIDTFVPGSQPGEFTLGAIKSGPGMTSPLVRIVSTNYNQHAMVFFKWVNQNREWFTITLYGRTKELTSELKENFIRFSKSLGLPENHIVFPVPIDQCIDGSAWSHPQFEK | no binding (tested: dilutions starting at 1000 nM) | no binding (tested: dilutions starting at 1000 nM) | – | – | no binding (tested: dilutions starting at 1000 nM) | no binding (tested: dilutions starting at 1000 nM)
– | – | – | 8.4 | 20 | 17 | – | lipocalin mutein of SEQ ID NO: 29 (designed binder, Parent hNGAL mutein; also called hNGAL mutein) QDSTSDLIPAPPLSKVPLQQNFQDNQFHGKWYVVGWAGNIKLREDKDPFKMSATIYELKEDKSYNVTEVVFEQKKCHYIIKTFVPGSQPGEFTLGDIKSPPGETSSLVRVVSTNYNQHAMVFFKKVFQNREFFWITLYGRTKELTSELKENFIRFSKSLGLPENHIVFPVPIDQCIDGSAWSHPQFEK | no binding (tested: dilutions starting at 1000 nM) | no binding (tested: dilutions starting at 1000 nM) | no binding (tested: typically 0.43-2000 nM) | no binding (tested: dilutions starting at 1000 nM) | – | –
